In publication PMC3173086:

Target: MppA (murein tripeptide-binding protein of E. coli), His tag cleaved (E. coli K-12) (UniProt P77348)
Test: other fluorescence titration

Chain of UniProt P77348 (P77348 23-537, tags left off): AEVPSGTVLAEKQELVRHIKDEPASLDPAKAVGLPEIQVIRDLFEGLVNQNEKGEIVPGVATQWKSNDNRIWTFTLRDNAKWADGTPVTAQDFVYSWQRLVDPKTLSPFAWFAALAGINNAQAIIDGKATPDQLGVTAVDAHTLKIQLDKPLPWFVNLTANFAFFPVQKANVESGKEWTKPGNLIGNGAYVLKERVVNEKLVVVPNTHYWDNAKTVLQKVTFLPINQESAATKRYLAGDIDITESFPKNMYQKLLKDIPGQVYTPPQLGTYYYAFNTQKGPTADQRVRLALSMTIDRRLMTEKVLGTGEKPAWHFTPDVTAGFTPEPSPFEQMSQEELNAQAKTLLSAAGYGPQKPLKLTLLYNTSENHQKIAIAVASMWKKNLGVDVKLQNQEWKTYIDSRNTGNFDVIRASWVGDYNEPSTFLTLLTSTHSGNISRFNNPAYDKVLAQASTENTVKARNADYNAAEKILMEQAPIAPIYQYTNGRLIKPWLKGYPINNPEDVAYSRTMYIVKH

Kd: 130 µM
Substance: L-Ala-γ-D-Glu-L-Lys (peptide)
